Key:
[1] = Flocculation in human plasma; design: key to Plasma Macro (precipitation/coagulation score) / Plasma Micro (precipitation/coagulation score) / Plasma Pellet (score): 0=negative; 1=very slight precipitation or pellet; 2=minimal precipitation or pellet; 3=moderate precipitation or pellet; 4=significant precipitation or pellet
Procedure: Test article dosing solutions (3 concentrations) and the placebo (3 concentrations) were mixed with equal volumes of human plasma and serum from a donor. […] The placebo was the same as the test article except there was no ATB200 rhGAA.
One ml of each dose of test article or placebo, was mixed with an equal volume of plasma, serum and saline. Samples were incubated for 30 minutes at room temperature. After incubation the tubes were examined macroscopically and microscopically for precipitation or coagulation. An aliquot from each tube was centrifuged at 14,000 rpm in a microcentrifuge for 10 minutes. Each tube was examined for the presence or absence of a pellet. Precipitation/coagulation and pellets were scored as follows: • 0=negative • 1=very slight precipitation or pellet • 2=minimal precipitation or pellet • 3=moderate precipitation or pellet • 4=significant precipitation or pellet

[2] = Safety and tolerability in patients with Pompe disease; assay type: in vivo, human; settings: alone and in combination with miglustat
Procedure: Mean total GAA protein and miglustat PK results from the first 8 Cohort 1 patients through Visit 9 and the first 2 Cohort 3 patients were assessed.

[3] = Plasma total GAA protein pharmacokinetics, phase 1/2 study in adults with Pompe disease; assay type: in vivo, human; settings: for Total GAA Protein AUC0-t / Total GAA Protein AUC0-∞ / Total GAA Protein Cmax: n = 8, geometric mean
[4] = Cohort 1, 5 mg/kg alone, n = 8, arithmetic mean
[5] = Cohort 1, 10 mg/kg alone, n = 8, arithmetic mean
[6] = Cohort 1, 20 mg/kg alone, n = 8, arithmetic mean
[7] = Cohort 1, ATB200 20 mg/kg + miglustat high MD, n = 8, arithmetic mean
[8] = Cohort 1, ATB200 20 mg/kg + miglustat high SD, n = 7, arithmetic mean
[9] = Cohort 1, ATB200 20 mg/kg + miglustat low MD, n = 8, arithmetic mean
[10] = Cohort 1, ATB200 20 mg/kg + miglustat low SD, n = 8, arithmetic mean
[11] = Cohort 3, ATB200 20 mg/kg + miglustat high MD (first Cohort 3 line), n = 2, arithmetic mean
[12] = Cohort 3, ATB200 20 mg/kg + miglustat high MD (second Cohort 3 line), n = 2, arithmetic mean

For “ATB200: recombinant human acid α-glucosidase expressed in CHO cells with increased content of M6P-bearing N-glycans”, the “Plasma Macro (precipitation/coagulation score)” value ([1]; Final concentration 300 μg/mL) was 0, the “Plasma Micro (precipitation/coagulation score)” value ([1]; Final concentration 300 μg/mL) was 0 and the “Plasma Pellet (score)” value ([1]; Final concentration 300 μg/mL) was 0. For the same substance, the “Plasma Macro (precipitation/coagulation score)” value ([1]; Final concentration 600 μg/mL) was 0, the “Plasma Micro (precipitation/coagulation score)” value ([1]; Final concentration 600 μg/mL) was 0 and the “Plasma Pellet (score)” value ([1]; Final concentration 600 μg/mL) was 0. The “Plasma Macro (precipitation/coagulation score)” value ([1]; Final concentration 1000 μg/mL) was 0, the “Plasma Micro (precipitation/coagulation score)” value ([1]; Final concentration 1000 μg/mL) was 0 and the “Plasma Pellet (score)” value ([1]; Final concentration 1000 μg/mL) was 0. The pellet after centrifugation ([1]; human plasma, 14,000 rpm 10 minutes) was “no pellets were observed”, the “precipitation, macroscopic and microscopic” value ([1]; human plasma, each ATB200 concentration, 30 minutes at room temperature) was “No precipitation was observed macroscopically or microscopically” and the safety and tolerability [2] was “safe and well tolerated”. For the same substance, the “increase of distribution half-life (α-phase)” value ([3]; ATB200 20 mg/kg with miglustat 260 mg relative to ATB200 alone) was 45%, the “increase of total GAA protein exposure (AUC)” value ([3]; ATB200 20 mg/kg with miglustat 260 mg relative to ATB200 alone at 20 mg/kg) was “approximately 25%” and the “dose proportionality of plasma total GAA protein” value ([3]; ATB200 given alone, 5, 10, 20 mg/kg) was “increases in a slightly greater-than-dose-proportional manner”. For the same substance, the “Total GAA Protein CLT” value [3, 4] was 2.1 L/h, the “Total GAA Protein VSS” value [3, 4] was 4.62 L and the “Total GAA Protein αt1/2” value [3, 4] was 1.1 h. For the same substance, the “Total GAA Protein βt1/2” value [3, 4] was 1.9 h, the “Total GAA Protein AUC0-t” value ([3]; Cohort 1, 5 mg/kg alone) was 215 ng·h/mL and the “Total GAA Protein AUC0-∞” value ([3]; Cohort 1, 5 mg/kg alone) was 218 ng·h/mL. For the same substance, the “Total GAA Protein Cmax” value ([3]; Cohort 1, 5 mg/kg alone) was 61 ng/mL, the “Total GAA Protein tmax” value ([3]; Cohort 1, 5 mg/kg alone, n = 8, median) was 3.8 h and the “Total GAA Protein CLT” value [3, 5] was 1.59 L/h. The “Total GAA Protein VSS” value [3, 5] was 3.87 L, the “Total GAA Protein αt1/2” value [3, 5] was 1.3 h and the “Total GAA Protein βt1/2” value [3, 5] was 1.6 h. The “Total GAA Protein AUC0-t” value ([3]; Cohort 1, 10 mg/kg alone) was 578 ng·h/mL, the “Total GAA Protein AUC0-∞” value ([3]; Cohort 1, 10 mg/kg alone) was 584 ng·h/mL and the “Total GAA Protein Cmax” value ([3]; Cohort 1, 10 mg/kg alone) was 144 ng/mL. The “Total GAA Protein CLT” value [3, 6] was 1.22 L/h, the “Total GAA Protein VSS” value [3, 6] was 3.52 L and the “Total GAA Protein αt1/2” value [3, 6] was 1.5 h. For the same substance, the “Total GAA Protein βt1/2” value [3, 6] was 2.1 h, the “Total GAA Protein AUC0-t” value ([3]; Cohort 1, 20 mg/kg alone) was 1508 ng·h/mL and the “Total GAA Protein AUC0-∞” value ([3]; Cohort 1, 20 mg/kg alone) was 1512 ng·h/mL. The “Total GAA Protein Cmax” value ([3]; Cohort 1, 20 mg/kg alone) was 345 ng/mL, the “Total GAA Protein CLT” value [3, 7] was 0.98 L/h and the “Total GAA Protein αt1/2” value [3, 7] was 2.1 h. For the same substance, the “Total GAA Protein βt1/2” value [3, 7] was 2.5 h, the “Total GAA Protein CLT” value [3, 8] was 0.98 L/h and the “Total GAA Protein αt1/2” value [3, 8] was 2.3 h. For the same substance, the “Total GAA Protein βt1/2” value [3, 8] was 2.7 h, the “Total GAA Protein CLT” value [3, 9] was 1.02 L/h and the “Total GAA Protein αt1/2” value [3, 9] was 1.9 h. For the same substance, the “Total GAA Protein βt1/2” value [3, 9] was 2.5 h, the “Total GAA Protein CLT” value [3, 10] was 1.09 L/h and the “Total GAA Protein αt1/2” value [3, 10] was 1.8 h. The “Total GAA Protein βt1/2” value [3, 10] was 2.4 h, the “Total GAA Protein CLT” value [3, 11] was 0.69 L/h and the “Total GAA Protein αt1/2” value [3, 11] was 2 h. The “Total GAA Protein βt1/2” value [3, 11] was 2.4 h, the “Total GAA Protein CLT” value [3, 12] was 0.66 L/h and the “Total GAA Protein αt1/2” value [3, 12] was 1.9 h. For the same substance, the “Total GAA Protein βt1/2” value [3, 12] was 2.6 h and the volume of distribution ([3]; in vivo) was “relatively high volume of distribution”.

Source: patent US10512676B2, “Formulations comprising recombinant acid alpha-glucosidase” (Amicus Therapeutics, Inc., priority 2016, dated 2019)
